{"source": "patent US9283300B2", "about": "“Use of midkine protein and the protein-containing medical device” (GENERAL REGENERATIVES, LTD, priority 2009, dated 2016)", "key": {"[1]": {"test_system": "cartilage of normal mouse (knee-joint articular, ear elastic, tracheal, intervertebral disc)", "assay": "rhMK effect on cartilage thickness of normal mice (subcutaneous injection, histology)", "assay_type": "in vivo, C57BL/6J mice", "conditions": "for Thickness of cartilage, Ear elastic cartilage / Thickness of cartilage, Femoral condyle / Thickness of cartilage, Intervertbral disc (T2-3): normal mouse, mean ± SD", "description": "Method. 8-weeks-old male C57BL/6J mice were injected subcutaneously with recombinant human MK (rhMK) or control saline. The injection volume was 0.5 ml, given daily for a week. The mice were grouped (3 animals per group): Saline (NS) group, rhMK groups injected with various dosages at 10, 33, 100, 300, 900 μg/kg. Rats were injected with saline or rhMK (175 μg/kg) daily for a week. Rabbits were injected with saline or rhMK (92.5 μg/kg) daily for two week. Histological observation and evaluation. The knee joint tissues of all mice and rats were fixed in 10% (v/v) formalin for 1 day, the tissues of rabbits were fixed for 2 days. The fixed tissues were subjected to demineralization in liquid (7% AlCl3.6H2O, 5% methanoic acid, 8.5% HCl) 4 days for mouse and rats issues, and 10 days for rabbit tissues. The demineralized tissues were subjected to dehydration by gradient ethanol, and treated for transparency by xylene, and embedded in wax. Tissue sections were prepared by the paraffin slicing machine (Laica), and stained with hemotoxylin/eosin or Safranine O/fast green staining. Slides were observed under microscope and analyzed. The thickness of cartilage tissues were measured by the vernier caliper on microscope. Three tissue sections from each sample were measured and analyzed statisticaly. The distance between surface of cartilage to subchondral tide line was measured at ½ position of femoral condyle to denote the thickness of knee-joint cartilage. The thickness of cartilage at central part of ears was measured to denote the thickness of ear elastic cartilage. The distance between out surface of annulus to nucleus of the intervertebral disc was measured to denote the thickness of thoracic intervertebral disc (T2-3). The injection dose of rhMK: mice was injected subcutaneously 300 μg/kg daily for a week; rats were injected 175 μg/kg daily for a week; and New Zealand rabbits was injected 92.5 μg/kg daily for two weeks. Three animals per group were analyzed."}, "[2]": {"test_system": "rat fibrochondrocyte and articular chondrocyte", "assay": "Phenotype of chondrocytes in monolayer culture (semi-quantitative PCR, collagen II immunohistochemical staining)", "assay_type": "cell-based", "conditions": "passages P0-P2, Col2a1/collagen II", "description": "3. Culture of primary chondrocytes in monolayer. Three types of primary chondrocytes were suspended in DMEM medium containing 10% FBS, adjusted to 5×10^4 cells/ml, added to 6-well plate with 2 ml medium/well, and incubated in 37° C. at 5% CO2. Experiment was divided into two groups: control group and experimental group (with 3 μg/ml rhMK). Cell medium was changed every two days. When the cells grew to the confluence of 85% to 90%, the cells were collected by trypsin digestion, washed in PBS by centrifugation. The cells were resuspended in DMEM containing 10% FBS. Cell survival was monitored by trypan blue staining. Part of the cells were used for cell passage; some were for RNA extraction; some were cytospined onto a glass slide for later immunohistochemical staining and the slides were stored at −80° C. Primary cells or passage 0 (P0) were cultured for 7 days. The newly passaged cells were further cultured in a 6-well plate for 3 days which was then collected by trypsin-digestion and marked as passage P1. The cell amplification at each passage=total number of cells at output/total number of cells at initial input. 6. Immunohistochemical staining. […] RNA extraction and semi-quantitative PCR. […] PCR products were separated on 1.5% (w/v) agarose gels and quantified after staining with ethidium bromide in comparison with internal control gene expression of β-actin."}, "[3]": {"conditions": "Mouse, rhMK 300 μg/kg s.c. daily for a week"}, "[4]": {"conditions": "rhMK 10 μg/kg s.c. daily for one week"}, "[5]": {"conditions": "rhMK 33 μg/kg s.c. daily for one week"}, "[6]": {"conditions": "rhMK 100 μg/kg s.c. daily for one week"}, "[7]": {"conditions": "rhMK 300 μg/kg s.c. daily for one week"}, "[8]": {"conditions": "rhMK 900 μg/kg s.c. daily for one week"}}, "data": [{"molecule": "rhMK: recombinant human midkine mature protein (SEQ ID NO.1) expressed in E. coli and purified by ion-exchange chromatography (protein, listed as Homo sapiens) MKKKDKVKKGGPGSECAEWAWGPCTPSSKDCGVGFREGTCGAQTQRIRCRVPCNWKKEFGADCKYKFENWGACDGGTGTKVRQGTLKKARYNAQCQETIRVTKPCTPKTKAKAKAKKGKGKD", "values": [{"measurement": "Cartilage thickness, Ear", "setting": "[1]; [3]", "value": "58.5 ± 19.6", "unit": "µm"}, {"measurement": "Cartilage thickness, Femoral condyle", "setting": "[1]; [3]", "value": "195 ± 9.9", "unit": "µm"}, {"measurement": "Cartilage thickness, Intervertbral disc (T2-3)", "setting": "[1]; [3]", "value": "201 ± 17.2", "unit": "µm"}, {"measurement": "Cartilage thickness, Trachea", "setting": "[1]; [3]", "value": "114 ± 18", "unit": "µm"}, {"measurement": "effective dose that promoted the growth of all three categories of cartilages", "setting": "[1]; mice, s.c. daily for a week", "value": 300, "unit": "µg/kg/day"}, {"measurement": "minimum effective dose, articular cartilage and ear elastic cartilage", "setting": "[1]; mice, s.c. daily for a week", "value": 10, "unit": "µg/kg/day"}, {"measurement": "Thickness of cartilage, Ear elastic cartilage", "setting": "[1]; [4]", "value": "47.6 ± 4.7", "unit": "μm"}, {"measurement": "Thickness of cartilage, Femoral condyle", "setting": "[1]; [4]", "value": "152 ± 2.7", "unit": "μm"}, {"measurement": "Thickness of cartilage, Intervertbral disc (T2-3)", "setting": "[1]; [4]", "value": "193.8 ± 25.2", "unit": "μm"}, {"measurement": "Thickness of cartilage, Ear elastic cartilage", "setting": "[1]; [5]", "value": "46.2 ± 5.6", "unit": "μm"}, {"measurement": "Thickness of cartilage, Femoral condyle", "setting": "[1]; [5]", "value": "156.4 ± 8.1", "unit": "μm"}, {"measurement": "Thickness of cartilage, Intervertbral disc (T2-3)", "setting": "[1]; [5]", "value": "206.2 ± 29.4", "unit": "μm"}, {"measurement": "Thickness of cartilage, Ear elastic cartilage", "setting": "[1]; [6]", "value": "48.9 ± 5.5", "unit": "μm"}, {"measurement": "Thickness of cartilage, Femoral condyle", "setting": "[1]; [6]", "value": "172.4 ± 11.1", "unit": "μm"}, {"measurement": "Thickness of cartilage, Intervertbral disc (T2-3)", "setting": "[1]; [6]", "value": "193.8 ± 3.1", "unit": "μm"}, {"measurement": "Thickness of cartilage, Ear elastic cartilage", "setting": "[1]; [7]", "value": "58.5 ± 19.6", "unit": "μm"}, {"measurement": "Thickness of cartilage, Femoral condyle", "setting": "[1]; [7]", "value": "195.3 ± 9.9", "unit": "μm"}, {"measurement": "Thickness of cartilage, Intervertbral disc (T2-3)", "setting": "[1]; [7]", "value": "200.7 ± 17.2", "unit": "μm"}, {"measurement": "Thickness of cartilage, Ear elastic cartilage", "setting": "[1]; [8]", "value": "51.6 ± 5.6", "unit": "μm"}, {"measurement": "Thickness of cartilage, Femoral condyle", "setting": "[1]; [8]", "value": "200.0 ± 7.0", "unit": "μm"}, {"measurement": "Thickness of cartilage, Intervertbral disc (T2-3)", "setting": "[1]; [8]", "value": "217.1 ± 6.0", "unit": "μm"}, {"measurement": "effect on the phenotype of fibrochondrocyte and articular chondrocyte", "setting": "[2]", "value": "no significant effect"}]}]}
